Changes are numbered by the printed parent chain. Names and notes keep the numbering of the source.
T1: cynomolgus monkey CD37 (cynomolgus monkey (Macaca fascicularis), UniProt P11049 1-281 (human entry))
T1 construct: also called mfCD37; cynomolgus CD37
T1 chain: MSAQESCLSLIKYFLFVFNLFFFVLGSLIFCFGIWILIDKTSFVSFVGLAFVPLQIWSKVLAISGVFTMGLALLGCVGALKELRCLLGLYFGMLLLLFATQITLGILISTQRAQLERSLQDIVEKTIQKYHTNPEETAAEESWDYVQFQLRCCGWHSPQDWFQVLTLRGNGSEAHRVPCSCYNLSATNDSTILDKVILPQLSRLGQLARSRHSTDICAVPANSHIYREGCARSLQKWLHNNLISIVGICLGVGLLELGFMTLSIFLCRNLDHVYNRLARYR

T2: human CD37 (human (Homo sapiens), UniProt P11049 1-281)
T2 construct: Endogenous on Daudi cells, Raji cells and human blood B cells; also called Leukocyte Antigen CD37; GP52-40
T2 sequence: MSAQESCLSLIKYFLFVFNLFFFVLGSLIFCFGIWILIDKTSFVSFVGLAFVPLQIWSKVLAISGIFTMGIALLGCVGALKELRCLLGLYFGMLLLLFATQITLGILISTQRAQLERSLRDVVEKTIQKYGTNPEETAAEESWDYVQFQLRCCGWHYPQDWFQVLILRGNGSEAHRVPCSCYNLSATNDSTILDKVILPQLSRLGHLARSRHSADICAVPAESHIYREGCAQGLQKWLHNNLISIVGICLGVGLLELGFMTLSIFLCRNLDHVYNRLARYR

B1: bsIgG1-016-H5L2-LC90S-F405L-E430Gx010-H5L2-K409R-E430G (bispecific antibody)
heavy 1: not shown
light 1: DVVMTQSPSTLSASVGDRVTITCQASQNIDSNLAWYQQKPGKAPKFLIYYASNLPFGVPSRFKGSGSGTEFTLTISSLQPDDFATYYCQSADVGSTYVAAFGGGTKVEIKRTVAAPSVFIFPPSDEQLKSGTASVVCLLNNFYPREAKVQWKVDNALQSGNSQESVTEQDSKDSTYSLSSTLTLSKADYEKHKVYACEVTHQGLSSPVTKSFNRGEC
heavy 2: not shown
light 2: AYDMTQSPSTLSASVGDRVTITCQASQNIIDYLAWYQQKPGKAPKLLIHKASTLASGVPSRFKGSGSGTEFTLTISSLQPDDFATYYCQQGYSNSNIDNTFGGGTKVEIKRTVAAPSVFIFPPSDEQLKSGTASVVCLLNNFYPREAKVQWKVDNALQSGNSQESVTEQDSKDSTYSLSSTLTLSKADYEKHKVYACEVTHQGLSSPVTKSFNRGEC
notes: also called bispecific CD37 antibody
B2: IgG1-016-H5L2-E430G (antibody)
heavy: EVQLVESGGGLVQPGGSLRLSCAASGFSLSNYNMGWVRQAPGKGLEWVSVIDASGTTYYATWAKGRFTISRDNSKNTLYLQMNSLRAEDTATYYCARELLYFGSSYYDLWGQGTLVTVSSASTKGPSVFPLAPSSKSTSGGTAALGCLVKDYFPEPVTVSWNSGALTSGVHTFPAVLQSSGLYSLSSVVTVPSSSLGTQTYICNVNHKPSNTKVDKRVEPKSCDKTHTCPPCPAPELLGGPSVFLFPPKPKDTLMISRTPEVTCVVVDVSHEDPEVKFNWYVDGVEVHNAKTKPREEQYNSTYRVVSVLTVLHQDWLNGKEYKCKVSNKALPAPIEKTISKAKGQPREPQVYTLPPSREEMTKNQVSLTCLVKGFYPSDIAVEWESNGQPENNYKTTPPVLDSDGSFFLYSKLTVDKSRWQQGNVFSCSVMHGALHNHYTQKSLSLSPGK
light: B1 light 1 with S90C
notes: IgG1,kappa with E430G
B3: IgG1-005-H1L2-E430G (antibody)
heavy: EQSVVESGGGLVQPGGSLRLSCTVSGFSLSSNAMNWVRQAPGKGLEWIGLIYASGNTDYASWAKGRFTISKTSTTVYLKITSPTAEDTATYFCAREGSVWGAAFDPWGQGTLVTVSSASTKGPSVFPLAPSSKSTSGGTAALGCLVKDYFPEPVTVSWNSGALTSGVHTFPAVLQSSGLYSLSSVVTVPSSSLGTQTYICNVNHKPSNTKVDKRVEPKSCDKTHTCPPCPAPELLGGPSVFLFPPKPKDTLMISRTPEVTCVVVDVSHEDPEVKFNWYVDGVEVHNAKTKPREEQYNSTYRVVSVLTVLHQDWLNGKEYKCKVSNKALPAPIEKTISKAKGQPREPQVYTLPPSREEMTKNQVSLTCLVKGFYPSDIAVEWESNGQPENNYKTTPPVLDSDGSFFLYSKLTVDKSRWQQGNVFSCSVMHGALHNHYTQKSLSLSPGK
light: AYDMTQSPSSVSASVGDRVTITCQASQSISNWLAWYQQKPGKAPKQLIYAASTLASGVPSRFKGSGSGTDFTLTISSLQPEDFATYYCQQGYSNSNIDNTFGGGTKVEIKRTVAAPSVFIFPPSDEQLKSGTASVVCLLNNFYPREAKVQWKVDNALQSGNSQESVTEQDSKDSTYSLSSTLTLSKADYEKHKVYACEVTHQGLSSPVTKSFNRGEC
notes: IgG1,kappa with E430G
B4: IgG1-010-H5L2-E430G (antibody)
heavy: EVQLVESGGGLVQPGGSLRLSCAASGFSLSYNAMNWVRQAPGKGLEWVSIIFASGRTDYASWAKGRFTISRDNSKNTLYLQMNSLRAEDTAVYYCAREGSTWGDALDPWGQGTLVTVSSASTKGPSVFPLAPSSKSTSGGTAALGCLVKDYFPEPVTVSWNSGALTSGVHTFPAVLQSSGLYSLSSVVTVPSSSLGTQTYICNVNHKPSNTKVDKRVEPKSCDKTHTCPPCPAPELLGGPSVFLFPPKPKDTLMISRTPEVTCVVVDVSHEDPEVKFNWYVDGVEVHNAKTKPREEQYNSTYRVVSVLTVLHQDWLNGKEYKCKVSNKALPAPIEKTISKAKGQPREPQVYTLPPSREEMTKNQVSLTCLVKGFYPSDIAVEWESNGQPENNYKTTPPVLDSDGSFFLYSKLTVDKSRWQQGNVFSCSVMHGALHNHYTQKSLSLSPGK
light: B1 light 2
notes: IgG1,kappa with E430G
B5: IgG1-G28.1 (antibody)
heavy: not shown
light: DIQMTQSPASLSASVGETVTITCRTSENVYSYLAWYQQKQGKSPQLLVSFAKTLAEGVPSRFSGSGSGTQFSLKISSLQPEDSGSYFCQHHSDNPWTFGGGTELEIKRTVAAPSVFIFPPSDEQLKSGTASVVCLLNNFYPREAKVQWKVDNALQSGNSQESVTEQDSKDSTYSLSSTLTLSKADYEKHKVYACEVTHQGLSSPVTKSFNRGEC
notes: IgG1,kappa
B6: IgG1-G28.1-E430G (antibody)
heavy: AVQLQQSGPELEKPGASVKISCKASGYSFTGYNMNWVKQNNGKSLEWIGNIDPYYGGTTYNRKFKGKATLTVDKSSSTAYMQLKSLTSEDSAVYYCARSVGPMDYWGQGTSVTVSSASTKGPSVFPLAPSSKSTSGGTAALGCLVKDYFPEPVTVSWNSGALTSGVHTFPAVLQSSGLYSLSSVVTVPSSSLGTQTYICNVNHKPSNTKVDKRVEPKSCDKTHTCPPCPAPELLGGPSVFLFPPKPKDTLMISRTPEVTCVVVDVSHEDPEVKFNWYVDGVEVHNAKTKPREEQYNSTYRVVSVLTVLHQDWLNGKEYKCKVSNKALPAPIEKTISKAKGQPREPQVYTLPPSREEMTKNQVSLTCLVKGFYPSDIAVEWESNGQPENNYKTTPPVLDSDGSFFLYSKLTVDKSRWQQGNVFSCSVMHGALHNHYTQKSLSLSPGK
light: B5 light
notes: IgG1,kappa with E430G
B7: IgG1-004-H5L2-E430G (antibody)
heavy: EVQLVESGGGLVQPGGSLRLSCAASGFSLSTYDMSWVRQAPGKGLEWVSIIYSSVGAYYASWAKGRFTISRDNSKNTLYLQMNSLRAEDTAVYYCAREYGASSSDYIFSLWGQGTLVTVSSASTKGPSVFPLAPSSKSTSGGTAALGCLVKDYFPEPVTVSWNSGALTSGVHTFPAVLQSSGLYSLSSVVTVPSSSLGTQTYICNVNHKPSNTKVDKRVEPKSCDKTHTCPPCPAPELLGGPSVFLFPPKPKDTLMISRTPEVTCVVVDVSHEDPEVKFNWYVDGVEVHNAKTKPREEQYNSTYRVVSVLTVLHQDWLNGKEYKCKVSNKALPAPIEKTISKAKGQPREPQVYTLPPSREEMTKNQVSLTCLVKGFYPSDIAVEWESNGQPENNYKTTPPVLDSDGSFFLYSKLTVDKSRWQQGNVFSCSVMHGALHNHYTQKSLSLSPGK
light: AQVLTQSPSPLSASVGDRVTITCQASQSVYNSQNLAWYQQKPGKAPKLLIYEASKLASGVPSRFKGSGSGTEFTLTISSLQPDDFATYYCQGEFSCISADCTAFGGGTKVEIKRTVAAPSVFIFPPSDEQLKSGTASVVCLLNNFYPREAKVQWKVDNALQSGNSQESVTEQDSKDSTYSLSSTLTLSKADYEKHKVYACEVTHQGLSSPVTKSFNRGEC
notes: IgG1,kappa with E430G (EU numbering)
B8: IgG1-016-H5L2-F405L-E430G (antibody)
heavy: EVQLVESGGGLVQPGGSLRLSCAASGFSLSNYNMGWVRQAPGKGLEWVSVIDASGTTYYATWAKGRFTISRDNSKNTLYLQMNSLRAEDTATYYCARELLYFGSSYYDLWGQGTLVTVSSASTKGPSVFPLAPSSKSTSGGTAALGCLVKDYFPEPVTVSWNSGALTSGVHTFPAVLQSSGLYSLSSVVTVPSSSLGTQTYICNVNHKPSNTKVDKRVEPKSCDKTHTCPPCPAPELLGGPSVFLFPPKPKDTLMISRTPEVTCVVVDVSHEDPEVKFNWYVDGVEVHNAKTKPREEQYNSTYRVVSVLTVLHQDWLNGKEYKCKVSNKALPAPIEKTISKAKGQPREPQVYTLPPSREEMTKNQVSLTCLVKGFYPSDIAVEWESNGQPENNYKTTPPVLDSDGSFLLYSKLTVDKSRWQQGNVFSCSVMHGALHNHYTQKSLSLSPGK
light: B1 light 1 with S90C
notes: IgG1,kappa with F405L and E430G
B9: IgG1-016-H5L2 (antibody)
heavy: not shown
light: B1 light 1 with S90C
notes: Humanized, IgG1,kappa
B10: IgG1-016-H5L2-LC90S-F405L-E430G (antibody, V domains shown)
VH: EVQLVESGGGLVQPGGSLRLSCAASGFSLSNYNMGWVRQAPGKGLEWVSVIDASGTTYYATWAKGRFTISRDNSKNTLYLQMNSLRAEDTATYYCARELLYFGSSYYDLWGQGTLVTVSS
VL: DVVMTQSPSTLSASVGDRVTITCQASQNIDSNLAWYQQKPGKAPKFLIYYASNLPFGVPSRFKGSGSGTEFTLTISSLQPDDFATYYCQSADVGSTYVAAFGGGTKVEIKR
notes: light chain carries C90S; also called D1; IgG1-3009-016-H5L2-F405L-E430G-LC90S
B11: IgG1-005-H1L2 (antibody)
heavy: not shown
light: B3 light
notes: Humanized, IgG1,kappa
B12: IgG1-005-H1L2-K409R-E430G (antibody)
heavy: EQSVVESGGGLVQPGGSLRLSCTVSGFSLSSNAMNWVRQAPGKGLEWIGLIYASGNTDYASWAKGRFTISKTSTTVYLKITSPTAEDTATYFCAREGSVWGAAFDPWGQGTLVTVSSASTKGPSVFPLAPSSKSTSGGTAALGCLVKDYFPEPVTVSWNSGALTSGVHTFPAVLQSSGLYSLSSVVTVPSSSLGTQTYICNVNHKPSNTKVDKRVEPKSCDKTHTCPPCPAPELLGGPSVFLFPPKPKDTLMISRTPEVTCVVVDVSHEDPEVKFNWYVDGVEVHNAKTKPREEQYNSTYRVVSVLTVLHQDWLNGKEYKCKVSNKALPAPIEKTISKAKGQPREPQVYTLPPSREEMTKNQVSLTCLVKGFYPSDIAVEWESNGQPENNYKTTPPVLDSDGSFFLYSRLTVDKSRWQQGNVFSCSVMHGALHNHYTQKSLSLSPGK
light: B3 light
notes: IgG1,kappa with K409R and E430G
B13: IgG1-37.3 (antibody)
heavy: not shown
light: DIQMTQSPASLSVSVGETVTITCRASENIRSNLAWYQQKQGKSPQLLVNVATNLADGVPSRFSGSGSGTQYSLKINSLQSEDFGTYYCQHYWGTTWTFGGGTKLEIKRTVAAPSVFIFPPSDEQLKSGTASVVCLLNNFYPREAKVQWKVDNALQSGNSQESVTEQDSKDSTYSLSSTLTLSKADYEKHKVYACEVTHQGLSSPVTKSFNRGEC
notes: IgG1,kappa
B14: IgG1-37.3-E430G (antibody)
heavy: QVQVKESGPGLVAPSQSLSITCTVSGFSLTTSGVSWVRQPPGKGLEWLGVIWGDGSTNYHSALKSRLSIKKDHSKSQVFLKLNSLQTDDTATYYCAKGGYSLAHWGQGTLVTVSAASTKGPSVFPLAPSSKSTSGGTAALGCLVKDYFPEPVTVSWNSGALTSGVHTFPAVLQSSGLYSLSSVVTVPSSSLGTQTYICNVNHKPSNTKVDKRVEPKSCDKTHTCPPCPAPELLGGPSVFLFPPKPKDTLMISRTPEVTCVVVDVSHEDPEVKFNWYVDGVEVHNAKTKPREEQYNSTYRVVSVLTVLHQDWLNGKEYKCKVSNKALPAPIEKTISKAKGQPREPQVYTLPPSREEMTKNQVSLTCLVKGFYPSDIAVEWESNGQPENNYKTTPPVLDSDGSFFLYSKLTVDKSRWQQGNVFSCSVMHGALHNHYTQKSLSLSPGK
light: B13 light
notes: IgG1,kappa with E430G
B15: IgG1-010-H5L2 (antibody)
heavy: not shown
light: B1 light 2
notes: Humanized, IgG1,kappa
B16: IgG1-004-H5L2 (antibody)
heavy: not shown
light: B7 light

Target: T1, cynomolgus monkey CD37
Assay: flow cytometry, Alexa-488 labeled antibody on B cells in cynomolgus monkey whole blood; average of 4 animals
Procedure: (§1) Binding to human or cynomolgus monkey B cells was determined in a whole blood binding assay. Heparin-treated human blood from healthy volunteers was derived from UMC Utrecht (Utrecht, The Netherlands), hirudin-treated blood from cynomolgus monkeys was derived from Covance (Münster, Germany). Blood was aliquoted to wells of a 96-well round-bottom plate (Greiner Bio-one, cat. no. 65010; 35 μL/well). Red blood cells (RBC) were lysed by addition of 100 μL RBC lysis buffer (10 mM KHCO₃ [Sigma P9144], 0.1 mM EDTA [Fluka 03620] and […] NH₄CL [Sigma A5666]) and incubated on ice until RBC lysis was complete.
(§2) Cells were pelleted and washed twice in 150 μL FACS buffer and resuspended in 150 μL TO-PRO-3 (end concentration 0.2 μM; Molecular Probes, cat no. T3605). Samples were measured by flow cytometry using an LSRFortessa flow cytometer. Binding is expressed as geometric mean of A488 fluorescence intensity for viable TO-PRO-3⁻/CD14⁻/CD19⁺ B-cells (human) or viable TO-PRO-3⁻/CD14⁻/CD19⁺/CD20⁺ B-cells (cynomolgus monkey). Log-transformed data were analyzed using best-fit values of a non-linear dose-response fit in GraphPad PRISM.

| Binder | EC50 |
| --- | --- |
| B1 | 0.63 µg/mL |

target: T2, human CD37; assay: flow cytometry, Alexa-488 labeled antibody on B cells in human whole blood; average of 6 donors
Procedure: as §1, §2

| Binder | EC50 |
| --- | --- |
| B1 | 0.85 µg/mL |

Target: T1, cynomolgus monkey CD37
Assay: flow cytometry on CHO cells expressing cynomolgus monkey CD37
Procedure: (§3) Binding to cell surface expressed CD37 (Daudi cells, CHO cells expressing cynomolgus CD37) was determined by flow cytometry. Cells, resuspended in RPMI containing 0.2% BSA, were seeded at 100,000 cells/well in polystyrene 96 well round-bottom plates (Greiner bio-one Cat #650101) and centrifuged for 3 minutes at 300×g, 4° C. Serial dilutions (0.003-10 μg/mL final antibody concentration in 3.33× serial dilutions) of CD37 or control antibodies were added and cells were incubated for 30 minutes at 4° C. Plates were washed/centrifuged twice using FACS buffer (PBS/0.1% BSA/0.01% Na-Azide). Next, cells were incubated for 30 minutes at 4° C. with R-Phycoerythrin (PE)-conjugated goat-anti-human IgG F(ab′)2 (Jackson ImmunoResearch Laboratories, Inc., West Grove, PA; cat #: 109-116-098) diluted 1/100 in PBS/0.1% BSA/0.01% Na-Azide. Cells were washed/centrifuged twice using FACS buffer, resuspended in 30 μL FACS buffer and analyzed by determining mean fluorescent intensities using an Intellicyt iQue™ screener (Westburg). Binding curves were generated using non-linear regression (sigmoidal dose-response with variable slope) analyses within GraphPad Prism V6.04 software (GraphPad Software, Sand Diego, CA, USA).
Binding to CHO cells expressing cynomolgus monkey CD37 was determined by flow cytometry using a method as described above.

| Binder | binding result |
| --- | --- |
| B2 | binds |
| B3 | binds |
| B4 | binds |
| B5 | no binding (tested: 0.003-10 µg/mL) |
| B6 | no binding (tested: 0.003-10 µg/mL) |
| B7 | binds |

target: T2, human CD37; assay: flow cytometry on Daudi cells
Procedure: as §3

| Binder | binding result |
| --- | --- |
| B2 | binds |
| B8 | binds |
| B9 | binds |
| B10 | binds |
| B3 | binds |
| B11 | binds |
| B12 | binds |
| B13 | binds |
| B14 | binds |
| B15 | binds |
| B4 | binds |
| B5 | binds |
| B6 | binds |
| B16 | binds |
| B7 | binds |
